Reference: publication PMC4748815 (RNA, 2016)
Read-outs that look alike come from different tables or passages of the source.

T1: His6-tagged mouse GYF2 (mouse, UniProt Q6Y7W8 1-1291)
T1 sequence (looked up): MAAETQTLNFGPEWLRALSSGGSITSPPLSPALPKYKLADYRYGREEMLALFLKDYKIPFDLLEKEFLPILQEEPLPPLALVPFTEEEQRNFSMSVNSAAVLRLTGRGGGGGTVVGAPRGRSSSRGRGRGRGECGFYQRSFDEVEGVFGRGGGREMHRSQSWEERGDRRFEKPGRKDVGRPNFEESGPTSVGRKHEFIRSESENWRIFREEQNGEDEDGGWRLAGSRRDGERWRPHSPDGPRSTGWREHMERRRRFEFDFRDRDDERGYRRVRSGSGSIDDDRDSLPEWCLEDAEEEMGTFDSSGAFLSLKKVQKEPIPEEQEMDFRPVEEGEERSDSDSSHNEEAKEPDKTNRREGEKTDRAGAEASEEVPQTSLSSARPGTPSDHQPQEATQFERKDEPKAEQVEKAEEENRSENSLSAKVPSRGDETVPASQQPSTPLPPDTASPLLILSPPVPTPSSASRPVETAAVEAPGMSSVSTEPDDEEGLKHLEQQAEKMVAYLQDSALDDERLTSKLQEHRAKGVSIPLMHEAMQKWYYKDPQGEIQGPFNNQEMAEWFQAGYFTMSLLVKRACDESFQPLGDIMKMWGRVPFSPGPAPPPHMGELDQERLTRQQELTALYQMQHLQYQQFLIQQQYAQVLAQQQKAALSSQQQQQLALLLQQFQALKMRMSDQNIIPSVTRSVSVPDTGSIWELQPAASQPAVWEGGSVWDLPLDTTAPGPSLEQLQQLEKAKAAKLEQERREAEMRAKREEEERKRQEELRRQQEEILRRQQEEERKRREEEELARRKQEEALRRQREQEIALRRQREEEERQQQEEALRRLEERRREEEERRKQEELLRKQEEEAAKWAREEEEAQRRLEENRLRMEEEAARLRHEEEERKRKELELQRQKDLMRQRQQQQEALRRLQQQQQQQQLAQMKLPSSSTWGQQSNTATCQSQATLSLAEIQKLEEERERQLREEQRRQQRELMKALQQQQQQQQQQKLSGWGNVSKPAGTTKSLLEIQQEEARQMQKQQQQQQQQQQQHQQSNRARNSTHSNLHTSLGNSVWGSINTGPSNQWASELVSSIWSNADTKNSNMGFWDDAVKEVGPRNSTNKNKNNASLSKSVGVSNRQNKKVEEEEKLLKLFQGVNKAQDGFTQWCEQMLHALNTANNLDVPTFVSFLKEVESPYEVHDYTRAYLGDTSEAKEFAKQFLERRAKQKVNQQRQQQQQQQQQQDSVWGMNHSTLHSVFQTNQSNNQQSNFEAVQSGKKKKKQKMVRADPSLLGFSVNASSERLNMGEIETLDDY

B1: GST-tagged mouse TTP (natural protein, UniProt P22893 1-319, looked up)
chain: MDLSAIYESLQSMSHDLSSDHGGTESLGGLWNINSDSIPSGVTSRLTGRSTSLVEGRSCGWVPPPPGFAPLAPRPGPELSPSPTSPTATPTTSSRYKTELCRTYSESGRCRYGAKCQFAHGLGELRQANRHPKYKTELCHKFYLQGRCPYGSRCHFIHNPTEDLALPGQPHVLRQSISFSGLPSGRRSSPPPPGFSGPSLSSCSFSPSSSPPPPGDLPLSPSAFSAAPGTPVTRRDPNQACCPSCRRSTTPSTIWGPLGGLARSPSAHSLGSDPDDYASSGSSLGGSDSPVFEAGVFGPPQTPAPPRRLPIFNRISVSE

What was measured:
Assay in all cases: pull-down
His6-tagged mouse GYF2 [1] = target: T1, His6-tagged mouse GYF2
GST-tagged mouse TTP = target: B1
His6-tagged mouse GYF2 [2] = target: T1, His6-tagged mouse GYF2; remark: listed apart in the source

binding result (His6-tagged mouse GYF2 [1]) | binding result (GST-tagged mouse TTP) | binding result (His6-tagged mouse GYF2 [2]) | Binder
binds | binds | – | His6-tagged mouse 4EHP (natural protein, UniProt Q8BMB3 1-245, looked up) MNNKFDALKDDDSGDHDQNEENSTQKDGEKEKTDRDKSQSSGKRKAVVPGPAEHPLQYNYTFWYSRRTPGRPTSSQSYEQNIKQIGTFASVEQFWKFYSHMVRPGDLTGHSDFHLFKEGIKPMWEDDANKNGGKWIIRLRKGLASRCWENLILAMLGEQFMVGEEICGAVVSVRFQEDIISIWNKTASDQATTARIRDTLRRVLNLPPNTIMEYKTHTDSIKMPGRLGPQRLLFQNLWKPRLNVP
– | – | binds | B1
